{"source": "patent US20220233667A1", "about": "(OXFORD UNIVERSITY INNOVATION, published 2022)", "binders": {"B1": {"name": "R5.010 (antibody, V domains shown)", "VH": "EVQLVESGGGLVQPGGSLRLSCAASGFTFSSYWMSWVRQAPGKGLEWVANIKQDGSEKYYVDSVKGRFTISGDNAKNSLYLQMNSLRAEDTAVYYCARGASGYYYYNYGMDVWGQGTRVTVSS", "VL": "QPVLTQPPSVSVAPGQTARITCGGNNIGIKSVHWYQQKPGQAPVLVVYDDSDRPSGIPERFSGSNSANTATLTISRVEAGDEADYFCQVWDSSSDHPGVFGGGTKLTVLG", "notes": "also called mAb10"}, "B2": {"name": "R5.011 (antibody, V domains shown)", "VH": "EVQLVQSGSDLKKPGASVKVSCKASGYTFTSYAMNWVRQAPGQGLEWVGWINTNTGNPTYAQGFTGRFVFSLDTSVSTAYLQISSLKAEDTAVYYCARESPNYYDSSGYYSGYYFDYWGQGTLVTVSS", "VL": "SYELTQPPSVSVAPGQTATITCGGKNIGSKSVHWYQQKPGQAPVLVVYDDSDRPSGIPERFSGSNSGNTATLTISRVEAGDEADYYCQVWDSSSDHRVFGGGTKLTVLG", "notes": "also called mAb11"}, "B3": {"name": "R5.014 (antibody, V domains shown)", "VH": "EVQLVESGGGLVQPGRSLRLSCAASGFTFDDYAMHWVRQAPGKGLEWVSGISWNSASMDYADSVKGRFTISRDNAKNSLYLQMNSLRAEDTALYYCAKDPAPPYCGGDCYPSFDYWGQGTLVTVSS", "VL": "B2 VL with V10M, Q16K, T19R, K25N, V47I, D49Y, S94R, R97V", "notes": "also called mAb14"}, "B4": {"name": "R5.016 (antibody, V domains shown)", "VH": "QVQLVQSGAEVKKPGASVRVSCKASGYTFTSYGISWVRQAPGQGLEWMGWISGYDGNTNYAQKLQGRVTMTTDTSTSTAYMELRSLRSDDTAVYYCARDGPQVGDFDWQVYYYYGMDVWGQGTTVTVSS", "VL": "AIRMTQSPSTLSASVGDRVTITCRASQSINTWLAWYQQKPGKAPNLLISKASSLESGVPSRFSGSGSGTEFTLTISSLQPDDFATYFCQQYNSYLYTFGQGTKVEIRR", "notes": "also called mAb16"}}, "note": "Numbering of substitutions follows the chain as printed.", "data": [{"molecular_target": "T1, PfRH5Nt: amino acids F25-K140 of PfRH5 (3D7) with C-terminal CD4d3+4, biotin acceptor peptide and His6 tags (Plasmodium falciparum (3D7))", "T1 construct": "also called recombinant PfRH5Nt", "T1 chain": "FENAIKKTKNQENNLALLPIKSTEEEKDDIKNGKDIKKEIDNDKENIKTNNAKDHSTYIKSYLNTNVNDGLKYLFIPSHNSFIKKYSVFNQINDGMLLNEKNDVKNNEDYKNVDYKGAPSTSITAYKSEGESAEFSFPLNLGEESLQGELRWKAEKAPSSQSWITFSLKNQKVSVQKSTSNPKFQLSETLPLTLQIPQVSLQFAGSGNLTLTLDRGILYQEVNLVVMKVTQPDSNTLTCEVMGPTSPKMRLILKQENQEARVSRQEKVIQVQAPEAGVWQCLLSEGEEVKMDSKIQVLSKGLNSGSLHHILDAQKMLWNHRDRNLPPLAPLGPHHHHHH", "test": "ELISA on coated PfRH5Nt", "values": [{"binder": "B1", "binding result": "no binding (tested: 1000 ng/mL mAb)"}, {"binder": "B2", "binding result": "no binding (tested: 1000 ng/mL mAb)"}, {"binder": "B3", "binding result": "no binding (tested: 1000 ng/mL mAb)"}, {"binder": "B4", "binding result": "no binding (tested: 1000 ng/mL mAb)"}]}]}
